In patent US20220204575A1, “MODULATING SURVIVAL OF THERAPEUTIC CELLS AND METHODS, CELLS AND NUCLEIC ACIDS RELATED THERETO” (The Regents of the University of California, priority 2019, published 2022):

B1: BIK: pro-apoptotic BIK protein, human UniProt Q13323, SEQ ID NO: 104 (protein)
chain: MSEVRPLSRDILMETLLYEQLLEPPTMEVLGMTDSEEDLDPMEDFDSLECMEGSDALALRLACIGDEMDVSLRAPRLAQLSEVAMHSLGLAFIYDQTEDIRDVLRSFMDGFTTLKENIMRFWRSPNPGSWVSCEQVLLALLLLLALLLPLLSGGLHLLLK
B2: PUMA: pro-apoptotic PUMA protein, human UniProt Q9BXH1 (protein, UniProt Q9BXH1 1-193, looked up)
Bcl-2-binding component 3, …: MARARQEGSSPEPVEGLARDGPRPFPLGRLVPSAVSCGLCEPGLAAAPAAPTLLPAAYLCAPTAPPAVTAALGGSRWPGGPRSRPRGPRPDGPQPSLSLAEQHLESPVPSAPGALAGGPTQAAPGVRGEEEQWAREIGAQLRRMADDLNAQYERRRQEEQQRHRPSPWRVLYNLIMGLLPLPRGHRAPEMEPN
B3: BAD: pro-apoptotic BH3-only BCL-2 family protein, UniProt Q92934, heterologously expressed in T cells (protein, UniProt Q92934 1-168, looked up)
Bcl2-associated agonist of …: MFQIPEFEPSEQEDSSSAERGLGPSPAGDGPSGSGKHHRQAPGLLWDASHQQEQPTSSSHHGGAGAVEIRSRHSSYPAGTEDDEGMGEEPSPFRGRSRSAPPNLWAAQRYGRELRRMSDEFVDSFKKGLPRPKSAGTATQMRQSSSWTRVFQSWWDRNLGRGSSAPSQ

Key:
[1] = system: human primary CD4 T cells; assay: Anti-Her2 synNotch driving pro-apoptotic BCL-2 family protein X, T cell survival with antigen-expressing target cells; format: cell-based; conditions: for induced apoptosis of T cells: in the presence of antigen-expressing target cells
Protocol: For example, a circuit was designed, as schematically depicted in FIG. 27, with an anti-Her2 synNotch driving expression of a pro-apoptotic BCL-2 family protein “X”, where X stands for the various pro-apoptotic BCL-2 family members were tested in the depicted circuit. As shown, upon the anti-Her2 scFv portion of the synNotch receptor binding Her2 expressed by a target cell, the transcription factor (TF) portion of the synNotch, containing Gal4-VP64, is released and inducing expression of the pro-apoptotic BCL-2 family protein “X”. The level of induced apoptosis in the presence of cells expressing the target antigen, as compared to control cells not expressing the target antigen, was then assessed.
Results of testing BID, tBID, PUMA, BMF, HRK and BIK as pro-apoptotic BCL-2 family protein “X” in this system are shown in FIG. 28, along with a negative control employing BFP in place of the pro-apoptotic BCL-2 family protein “X”.
Thus, the therapeutic cells encoding the BID circuit were able to survive BID induction.

primary human T cells = assay: Constitutive overexpression of pro-apoptotic BCL-2 family proteins in T cells, FACS at culture day 12; format: cell-based; conditions: constitutive expression
Protocol: The abilities of several pro-apoptotic proteins (e.g., BIM, truncated Bid (tBID), and BAD) to induce T cell apoptosis when synthetically overexpressed from a constitutive promoter were tested. The tested T cells were also engineered to constitutively overexpress anti-apoptotic BCL-2.
Without being bound by theory, these effects were likely due to leaky expression of BIM, the high effectiveness of BIM in inducing apoptosis, or a combination thereof.

Molecule	relative level of induced therapeutic cell killing ([1]; comparison among tBID, PUMA, BMF, HRK and BIK)	induced apoptosis of T cells [1]	ability to drive T cell death (primary human T cells; in the absence of overexpressed BCL-2)	ability to induce T cell apoptosis / drive T cell death (primary human T cells; with constitutive overexpression of BCL-2, culture day 12)
B1	lower level of induced therapeutic cell killing	induce apoptosis of human primary CD4 T cells		
B2		induce apoptosis of human primary CD4 T cells		
B3			insufficient to drive T cell death	insufficient to drive T cell death
